From PMC10397247 come the findings set out here.

Assay [1] deals with T1, 4H570-bN.
T1 chain: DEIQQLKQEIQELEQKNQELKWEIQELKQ
In words: two-hybrid library CCNG1.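 Note: natural log of median RNA to DNA barcode read ratio; higher means stronger binding.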

Assay [2] concerns the target T2, 4H1629-bN.
T2 chain: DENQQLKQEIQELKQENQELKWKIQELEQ
Nature of the assay: two-hybrid library CCNG1.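 Note: natural log of median RNA to DNA barcode read ratio; higher means stronger binding.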

The target of assay [3] is T3, 4H3129-bN.
T3 chain: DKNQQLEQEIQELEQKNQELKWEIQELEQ
Nature of the assay: two-hybrid library CCNG1.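 Note: natural log of median RNA to DNA barcode read ratio; higher means stronger binding.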

Assay [4] addresses T4, 4H3817-bN.
T4 chain: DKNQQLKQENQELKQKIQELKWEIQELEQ
Nature of the assay: two-hybrid library CCNG1.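 Note: natural log of median RNA to DNA barcode read ratio; higher means stronger binding.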

Assay [5] addresses T5, 4H1449-bN.
T5 chain: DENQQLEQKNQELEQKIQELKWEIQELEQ
Nature of the assay: two-hybrid library CCNG1.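 Note: natural log of median RNA to DNA barcode read ratio; higher means stronger binding.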

The target in assay [6] is T6, 4H1359-bN.
T6 chain: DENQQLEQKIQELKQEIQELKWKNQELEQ
Nature of the assay: two-hybrid library CCNG1.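 Note: natural log of median RNA to DNA barcode read ratio; higher means stronger binding.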

Assay [7] deals with T7, 4H1710-bN.
T7 chain: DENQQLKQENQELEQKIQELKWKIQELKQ
Nature of the assay: two-hybrid library CCNG1.

Assay [8] deals with T8, 4H1393-bN.
T8 chain: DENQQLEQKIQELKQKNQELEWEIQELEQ
Nature of the assay: two-hybrid library CCNG1.

Assay [9] deals with T9, 4H1804-bN.
T9 chain: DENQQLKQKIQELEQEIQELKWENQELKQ
In words: two-hybrid library CCNG1.

Assay [10] concerns the target T10, 4H619-bN.
T10 chain: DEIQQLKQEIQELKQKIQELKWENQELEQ
Nature of the assay: two-hybrid library CCNG1.

Assay [11] has as its target T11, 4H3414-bN.
T11 chain: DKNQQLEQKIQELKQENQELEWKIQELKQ
In words: two-hybrid library CCNG1.

Assay [12] deals with T12, 4H850-bN.
T12 chain: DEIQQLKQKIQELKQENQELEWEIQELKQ
Nature of the assay: two-hybrid library CCNG1.

For assay [13], the target named is T13, 4H906-bN.
T13 chain: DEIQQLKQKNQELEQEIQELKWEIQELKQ
In words: two-hybrid library CCNG1.

In assay [14] the target is T14, 4H584-bN.
T14 chain: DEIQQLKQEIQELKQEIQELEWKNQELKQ
Nature of the assay: two-hybrid library CCNG1.

Assay [15] has as its target T15, 4H56-bN.
T15 chain: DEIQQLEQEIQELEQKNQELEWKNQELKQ
Nature of the assay: two-hybrid library CCNG1.

Assay [16] deals with T16, 4H3172-bN.
T16 chain: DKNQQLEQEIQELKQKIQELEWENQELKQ
In words: two-hybrid library CCNG1.

Assay [17] concerns the target T17, 4H3638-bN.
T17 chain: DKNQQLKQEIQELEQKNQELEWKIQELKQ
In words: two-hybrid library CCNG1.

Assay [18] deals with T18, 4H3974-bN.
T18 chain: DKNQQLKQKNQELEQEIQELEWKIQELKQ
In words: two-hybrid library CCNG1.

In assay [19] the target is T19, 4H3631-bN.
T19 chain: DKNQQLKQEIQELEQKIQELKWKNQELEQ
Nature of the assay: two-hybrid library CCNG1.

For assay [20], the target named is T20, 4H1985-bN.
T20 chain: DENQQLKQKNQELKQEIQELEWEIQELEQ
In words: two-hybrid library CCNG1.

The target of assay [21] is T21, P4mS.
T21 chain: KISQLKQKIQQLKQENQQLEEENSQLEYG
Nature of the assay: two-hybrid library CC1. Conditions: mean of both orientations.

Assay [22] deals with T22, P8.
T22 chain: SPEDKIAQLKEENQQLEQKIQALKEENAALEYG
Nature of the assay: two-hybrid library CC1. The conditions noted are these: mean of both orientations.

Assay [23] deals with T23, P3.
T23 chain: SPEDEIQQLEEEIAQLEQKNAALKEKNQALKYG
Nature of the assay: two-hybrid library CC1. The conditions noted are these: mean of both orientations.

Assay [24] addresses T24, P9.
T24 chain: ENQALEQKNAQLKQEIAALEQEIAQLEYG
In words: two-hybrid library CC1. Conditions: mean of both orientations.

The target in assay [25] is T25, P8mS.
T25 chain: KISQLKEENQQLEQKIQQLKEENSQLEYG
In words: two-hybrid library CC1. Conditions: mean of both orientations.

The target in assay [26] is T26, P6SC1.
T26 chain: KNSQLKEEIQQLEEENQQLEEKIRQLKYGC
In words: two-hybrid library CC1. The conditions noted are these: mean of both orientations.

The target of assay [27] is T27, P3mS.
T27 chain: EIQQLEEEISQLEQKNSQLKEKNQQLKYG
In words: two-hybrid library CC1. The conditions noted are these: mean of both orientations.

Assay [28] concerns the target T28, P12.
T28 chain: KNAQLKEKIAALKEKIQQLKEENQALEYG
Nature of the assay: two-hybrid library CC1. Conditions: mean of both orientations.

Assay [29] has as its target T29, P4.
T29 chain: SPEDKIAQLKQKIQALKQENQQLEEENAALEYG
Nature of the assay: two-hybrid library CC1. Conditions: mean of both orientations.

In assay [30] the target is T30, P7mS.
T30 chain: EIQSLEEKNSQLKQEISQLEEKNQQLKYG
In words: two-hybrid library CC1. Conditions: mean of both orientations.

The target of assay [31] is T31, P5mS.
T31 chain: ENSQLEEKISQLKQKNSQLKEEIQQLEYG
In words: two-hybrid library CC1. Conditions: mean of both orientations.

Assay [32] deals with T32, P5.
T32 chain: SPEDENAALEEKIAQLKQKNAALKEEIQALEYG
Nature of the assay: two-hybrid library CC1. The conditions noted are these: mean of both orientations.

In assay [33] the target is T33, P5SC2.
T33 chain: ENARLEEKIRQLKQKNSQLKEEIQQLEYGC
In words: two-hybrid library CC1. The conditions noted are these: mean of both orientations.

The target of assay [34] is T34, P6SC2.
T34 chain: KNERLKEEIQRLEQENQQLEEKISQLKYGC
In words: two-hybrid library CC1. The conditions noted are these: mean of both orientations.

The target in assay [35] is T35, P11.
T35 chain: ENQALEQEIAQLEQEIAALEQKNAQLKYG
In words: two-hybrid library CC1.

Assay [36] concerns the target T36, P5SC1.
T36 chain: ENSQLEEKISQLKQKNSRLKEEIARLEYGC
Nature of the assay: two-hybrid library CC1. Conditions: mean of both orientations.

Assay [37] concerns the target T37, P7.
T37 chain: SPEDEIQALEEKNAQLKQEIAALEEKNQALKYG
Nature of the assay: two-hybrid library CC1. Conditions: mean of both orientations.

The target in assay [38] is T38, P6.
T38 chain: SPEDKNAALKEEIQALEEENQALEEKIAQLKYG
Nature of the assay: two-hybrid library CC1. Conditions: mean of both orientations.

Assay [39] addresses T39, P6mS.
T39 chain: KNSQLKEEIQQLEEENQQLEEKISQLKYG
Nature of the assay: two-hybrid library CC1. The conditions noted are these: mean of both orientations.

Turning to DENQQLEQKIQELKQEIQELKWKNQELEQ [4H1359-bN], the interaction score was -0.803 in assay [1]; -1.24 in assay [2]; -0.57 in assay [3]; -1.14 in assay [4]; -0.317 in [5]; -0.688 in assay [6]. Further, the interaction score in assay [7] is -0.607; in assay [8] it was -0.209; in assay [9] it was 0.796; in assay [10], -1.38; in assay [11] it was -0.131; in assay [12] it was -0.294. The interaction score in assay [13] was -1.22; in assay [14], -0.701; in [15] it was -1.25; in assay [16] it was 0.294; in assay [17], -1.64; in assay [18] it was 1.47. For the same molecule, the results for the interaction score in assay [19] and in [20] were 0.911 and -0.294, respectively.
Regarding ENQALEQEIAQLEQEIAALEQKNAQLKYG [P11], the interaction score in assay [21] was -1.07; in assay [22], -2.59; in assay [23], -2.69; in assay [24] it was -2.25; in [25], -2.69; in [26], -2.75. In addition, the interaction score in assay [27] was -2.8; in assay [28], 0.313; in assay [29] it was -0.75; in [30] it was -2.62; in [31], -2.74; in assay [32], -2.7. In addition, the interaction score is -2.41 in assay [33]; -2.64 in assay [34]; -2.71 in assay [35]; -2.59 in assay [36]; -2.69 in [37]; -2.83 in assay [38]. Besides, the interaction score in assay [39] was -2.82.
